B1: 4237375: IMAGE clone protein: βTRCP2 (protein)
chain: MEPDSVIEDKTIELMCSVPRSLWLGCANLVESMCALSCLQSMPSVRCLQISNGTSSVIVSRKRPSEGNYQKEKDLCIKYFDQWSESDQVEFVEHLISRMCHYQHGHINSYLKPMLQRDFITALPEQGLDHIAENILSYLDARSLCAAELVCKEWQRVISEGMLWKKLIERMVRTDPLWKGLSERRGWDQYLFKNRPTDGPPNSFYRSLYPKIIQDIETIESNWRCGRHNLQRIQCRSENSKGVYCLQYDDEKIISGLRDNSIKIWDKTSLECLKVLTGHTGSVLCLQYDERVIVTGSSDSTVRVWDVNTGEVLNTLIHHNEAVLHLRFSNGLMVTCSKDRSIAVWDMASATDITLRRVLVGHRAAVNVVDFDDKYIVSASGDRTIKVWSTSTCEFVRTLNGHKRGIACLQYRDRLVVSGSSDNTIRLWDIECGACLRVLEGHEELVRCIRFDNKRIVSGAYDGKIKVWDLQAALDPRAPASTLCLRTLVEHSGRVFRLQFDEFQIISSSHDDTILIWDFLNVPPSAQNETRSPSRTYTYISR
B2: 4419252: IMAGE clone protein: PLCγ (protein)
chain: MAGAASPCANGCGPGAPSDAEVLHLCRSLEVGTVMTLFYSKKSQRPERKTFQVKLETRQITWSRGADKIEGAIDIREIKEIRPGKTSRDFDRYQEDPAFRPDQSHCFVILYGMEFRLKTLSLQATSEDEVNMWIKGLTWLMEDTLQAPTPLQIERWLRKQFYSVDRNREDRISAKDLKNMLSQVNYRVPNMRFLRERLTDLEQRSGDITYGQFAQLYRSLMYSAQKTMDLPFLEASTLRAGERPELCRVSLPEFQQFLLDYQGELWAVDRLQVQEFMLSFLRDPLREIEEPYFFLDEFVTFLFSKENSVWNSQLDAVCPDTMNNPLSHYWISSSHNTYLTGDQFSSESSLEAYARCLRMGCRCIELDCWDGPDGMPVIYHGHTLTTKIKFSDVLHTIKEHAFVASEYPVILSIEDHCSIAQQRNMAQYFKKVLGDTLLTKPVEISADGLPSPNQLKRKILIKHKKLAEGSAYEEVPTSMMYSENDISNSIKNGILYLEDPVNHEWYPHYFVLTSSKIYYSEETSSDQGNEDEEEPKEVSSSTELHSNEKWFHGKLGAGRDGRHIAERLLTEYCIETGAPDGSFLVRESETFVGDYTLSFWRNGKVQHCRIHSRQDAGTPKFFLTDNLVFDSLYDLITHYQQVPLRCNEFEMRLSEPVPQTNAHESKEWYHASLTRAQAEHMLMRVPRDGAFLVRKRNEPNSYAISFRAEGKIKHCRVQQEGQTVMLGNSEFDSLVDLISYYEKHPLYRKMKLRYPINEEALEKIGTAEPDYGALYEGRNPGFYVEANPMPTFKCAVKALFDYKAQREDELTFIKSAIIQNVEKQEGGWWRGDYGGKKQLWFPSNYVEEMVNPVALEPEREHLDENSPLGDLLRGVLDVPACQIAIRPEGKNNRLFVFSISMASVAHWSLDVAADSQEELQDWVKKIREVAQTADARLTEGKIMERRKKIALELSELVVYCRPVPFDEEKIGTERACYRDMSSFPETKAEKYVNKAKGKKFLQYNRLQLSRIYPKGQRLDSSNYDPLPMWICGSQLVALNFQTPDKPMQMNQALFMTGRHCGYVLQPSTMRDEAFDPFDKSSLRGLEPCAISIEVLGARHLPKNGRGIVCPFVEIEVAGAEYDSTKQKTEFVVDNGLNPVWPAKPFHFQISNPEFAFLRFVVYEEDMFSDQNFLAQATFPVKGLKTGYRAVPLKNNYSEDLELASLLIKIDIFPAKENGDLSPFSGTSLRERGSDASGQLFHGRAREGSFESRYQQPFEDFRISQEHLADHFDSRERRAPRRTRVNGDNRL

Key:
[1] = molecular target: T1, c-Myc peptide [SEQ ID No. 4] (Homo sapiens, UniProt P01106); assay: Phosphopeptide binding assay, peptide-BSA coated IPR plate
T1 construct: phosphothreonine (T58) and phosphoserine (S62) (chemical modification); purchased New England Peptide, Fitchburg Mass; host or cells: chemical synthesis
Experimental: A phosphopeptide derived from the IkBa degradation motif (SEQ ID NO: 1) and a phosphopeptide derived from c-Myc (SEQ ID NO: 4) were chemically synthesized (New England Peptide, Fitchburg Mass.) with the following sequences respectively:
To prepare IPR plates for use in the assay, approximately 2.4 pmol BSA, 1.2 pmole IκBα-24pp peptide-BSA conjugate or 1.2 pmole of Myc-p58Tp62S peptide-BSA conjugate in 2.5 μl were deposited on the carbon working electrode surface in a single well of a 96-well plate. At this stage, the plates were dried then used or stored under desiccated condition. A few hours prior to usage, the plates were rehydrated and blocked with 3% BSA, in PBS.
Two βTRCP genes, βTRCP1 and βTRCP2, are present in the human genome on […], respectively. The coding sequence of these two genes shares over 90% identity and several full-length cDNAs of which are available as EST clones from Incyte (Palo Alto, Calif.) IMAGE #3491843 and 4237375. Also included were three other non specific EST clones as controls (Incyte, Palo alto, Calif.). […] These DNAs were used to produce the βTRCP protein and proteins encoded by the other DNAs as described in the Example 7. Proteins were transferred into wells of the peptide-coated and BSA-blocked IPR plates. […] The ECL signals were measured using an imaging plate reader (IPR).

[2] = system: pooled phosphopeptide:BSA conjugates (Pools A-D); assay: Coded multiplex phosphopeptide binding assay with pooled peptide:BSA conjugates on 4 spots; settings: for ECL signal, spot A: Pool A, EGFR-pTyr1148, IkBa-24ppC, Myc-p58Tp62S; for ECL signal, spot B: Pool B, EGFR-pTyr992, EGFR-pTyr1148, Smad3C; for ECL signal, spot C: Pool C, EGFR-pTyr1068, IkBa-24ppC, Smad3C; for ECL signal, spot D: Pool D, EGFR-pTyr992, EGFR-pTyr1068, Myc-p58Tp62S
From the text: To prepare the Multi-Spot IPR plates, in this example we made use of pools of the peptide:BSA conjugates to coat each of 4 spots per well in a 96 well plate. To achieve this we made the following pools; • Pool A; EGFR-pTyr1148, IkBa-24ppC, Myc-p58Tp62S. • Pool B; EGFR-pTyr992, EGFR-pTyr1148, Smad3C. • Pool C; EGFR-pTyr1068, IkBa-24ppC, Smad3C. • Pool D; EGFR-pTyr992, EGFR-pTyr1068, Myc-p58Tp62S.
This combination of the various peptides results in any single peptide being present in two pools. Each of these four pools is then spotted on to a unique spot in a 4 spot array. In this way any single binding protein with specificity for only one of the peptides would bind to two spots; the identity of the two spots would allow the identification of the peptide involved in the binding reaction.
Typically approximately 120 fmole of peptide:BSA conjugate in 0.25 μl was deposited on each spot of a 4-spot multi-array IPR plates using a BioDot Dispenser (Bio-Dot Inc., vIrvine Calif.). At this stage, the plates were dried then used or stored under desiccated condition. A few hours prior to usage, the plates were rehydrated and blocked with 3% BSA, in PBS.
To test the system the following EST clones IMAGE # 3491843, 4237375, 4398016, 4419252, 3872466, 3907115 were obtained. These clones express the following genes βTRCP1, βTRCP2, Grb2, PLCγ, CBP and Shc1, respectively. […] These DNAs were used to produce proteins as described in the Materials and Methods. Proteins were transferred to a well of the 4 spot peptide-coated and BSA blocked ECL plates. The binding assay (using Sulfo-TAG labeled streptavidin as a detection agent) was carried our according to the procedures described in Example 11.

[3] = molecular target: T2, EGFR-pY1068 (SEQ ID NO: 7) (Homo sapiens, UniProt P00533); assay: Single-well 4-spot assay for multiple peptide-protein interactions; assay type: binding; settings: 4-spot plate
T2 construct: phosphotyrosine at Tyr1068 (chemical modification); purchased New England Peptide, Fitchburg Mass; host or cells: chemical synthesis
From the text: (§1) Four phosphopeptides and their cognate binding proteins (Table 14) were selected for an integrated assay of multiple peptide-protein interaction in 4-spot Multi-Array plates. The IkBa-24pp peptide and its binding protein, βTRCP, are described in Example 10. […] These phosphotyrosine containing peptides are recognized by different adaptor or effecter proteins of the receptor tyrosine kinase signaling pathway.
(§2) These four peptides were coupled to BSA carrier protein through cystine residue. After purification on PD-10 gel filtration columns, the peptide-BSA conjugates were then deposited on the assay domains of a 4-spot multi-array IPR plate (i.e., in one of the four exposed regions of working electrode defined by the dielectric layer) with an automated micro-dispensing system (Bio-Dot Dispenser, Bio-Dot, Irvine Calif.). […] These plates are dried then used or stored under desiccated conditions. A few hours prior to usage the plates were rehydrated and blocked with 3% BSA in PBS. […] The in vitro translated and biotin-labeled proteins were then assayed in the 4-spot multi-array IPR plates under conditions described in Example 10.

[4] = molecular target: T3, EGFR-pY1148 (SEQ ID NO: 9) (Homo sapiens, UniProt P00533); assay: as above; assay type: binding; settings: 4-spot plate
T3 construct: phosphotyrosine at Tyr1148 (chemical modification); purchased New England Peptide, Fitchburg Mass; host or cells: chemical synthesis
From the text: as §1, §2

[5] = molecular target: T4, EGFR-pY992 (SEQ ID NO: 5) (Homo sapiens, UniProt P00533); assay: as above; assay type: binding; settings: 4-spot plate
T4 construct: phosphotyrosine at Tyr992 (chemical modification); purchased New England Peptide, Fitchburg Mass; host or cells: chemical synthesis
From the text: as §1, §2

T1 sequence (P01106 with tags, fused parts or gaps limits assumed): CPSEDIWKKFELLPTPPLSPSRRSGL

Molecule | Average ECL signal, c-Myc peptide [SEQ ID No. 4] [1] | Code (pattern of positive spots) [2] | Peptide determined from code [2] | ECL signal, spot A [2] | ECL signal, spot B [2] | ECL signal, spot C [2] | ECL signal, spot D [2] | ECL signal, spot 3 EGFR-pY1068 [3] | ECL signal, spot 2 EGFR-pY1148 [4] | ECL signal, spot 4 EGFR-pY992 [5]
B1 | 896 | A, C | IkBa-24ppC | 7791 | 105 | 8615 | 74 | 24 | 35 | 
B2 |  | B, C, D | EGFR-pTyr992 & EGFR-pTyr1068 | 239 | 2783 | 1550 | 3388 | 1485 | 110 | 1404
